From paper PMC5176175, “Bg10: A Novel Metagenomics Alcohol-Tolerant and Glucose-Stimulated GH1 ß-Glucosidase Suitable for Lactose-Free Milk Preparation” (PLoS ONE, 2016)

Substrate: O=[N+]([O-])c1ccc(O[C@@H]2O[C@H](CO)[C@@H](O)[C@H](O)[C@H]2O)cc1
Experiment: purified protein
Type: biochemical, uncultured bacterium
Details: pH 7.0, 37 °C, sodium phosphate buffer, 0.1-10 mM substrate

B1: Bg10 (uncultured bacterium) (protein)
chain: MTAVRSESAELSQSPASYRFPPGFVWGAATAAYQIEGAAAEDGRTPSIWDTFSHTPGRVLNGDTGDIAADHYHRFRDDVALMSDLNLGAYRFSVSWSRVQPTGRGPAVQRGLDFYRQLVDELLEKGITPVATLYHWDLPQDLEDVGGWTVRDTPERFAEYTEIVAAALGDRVPYWTTLNEPWCSAYLGYGSGVHAPGRTDPEAALKAVHHLNLAHGRGIGVLRSLLPSTARTSITLNLHQIRPLSTSPADLDAARRIDAVGNRVWLGPILDGAYPQDVLADTGHLVDWDRLVRDGDLEEISRPIDLLGINYYTPTLVSDGRAHADGPAMPRNDGHGASAHSPWPGSEHVAFHLAPGETTAMRWAVDASGLYDLLMRIHREHPGLPMMVTENGAAYDDYISPEGAINDPDRIAYLRGHLSAVHRALADGADVRGYFLWSLLDNFEWAYGYSKRFGAVYVDFGTQRRIPKQSAHWYAAVARDNVLPDGPEEDGTS
notes: ORF10 in pET28a (EcoRI/HindIII), E. coli BL21(DE3), Ni-NTA and size exclusion
- Km: 490 ± 120 µM
- kcat: 2.918 ± 0.115 s⁻¹
